The test addresses NADH-dependent methanol dehydrogenase (MeDH) from Bacillus methanolicus MGA3, internal laboratory designation 2315 (tested as purified 2315A) (Bacillus methanolicus MGA3). The experiment in a line: cell-based or functional assay.

We go through 1 substance from US20220348932A1.

For the substance “activator protein (ACT) from Bacillus methanolicus MGA3, internal laboratory designation 2317 (tested as purified 2317A) (enzyme)”, the ratio of ACT to MeDH in an in vitro methanol dehydrogenase activation test (5 M methanol, 2 mM NAD, 10 µM MeDH 2315A, pH 7.4) (ACT:MeDH ratio) was 10.
